From patent US6242195

What was measured:
[1] = target: FcγRI α subunit-GST fusion (Homo sapiens (Human)) (UniProt P12314); test: ELISA, monomeric IgG on coated FcγRI α subunit-GST
[2] = target: FcγRIIIa α subunit ECD-6-His-GST fusion protein (Homo sapiens (Human)) (UniProt P08637); test: ELISA, E27:chimeric IgE:VEGF complex on coated receptor
[3] = target: FcγRIIb α subunit ECD-6-His-GST fusion protein (Homo sapiens (Human)) (UniProt P31994); test: as above
C1q (human) [4] = target: C1q (human) (UniProt P02745)
[5] = target: CD20 antigen (Homo sapiens (Human)) (UniProt P11836)
C1q (human) [6] = target: C1q (human) (UniProt P02745); test: C1q binding ELISA, antibody coated
[7] = target: CD20 antigen (Homo sapiens (Human)) (UniProt P11836); test: flow cytometry on WIL2-S cells, EC50 against C2B8 reference
[8] = target: FcγRIIa α subunit ECD-6-His-GST fusion protein (Homo sapiens (Human)) (UniProt P12318); test: ELISA, E27:chimeric IgE:VEGF complex on coated receptor
C1q (human) [9] = target: C1q (human) (UniProt P02745); test: C1q binding ELISA, antibody coated, up to 100 µg/ml

FcγRI α subunit-GST fusion (Homo sapiens (Human)), sequence (P12314 16-292): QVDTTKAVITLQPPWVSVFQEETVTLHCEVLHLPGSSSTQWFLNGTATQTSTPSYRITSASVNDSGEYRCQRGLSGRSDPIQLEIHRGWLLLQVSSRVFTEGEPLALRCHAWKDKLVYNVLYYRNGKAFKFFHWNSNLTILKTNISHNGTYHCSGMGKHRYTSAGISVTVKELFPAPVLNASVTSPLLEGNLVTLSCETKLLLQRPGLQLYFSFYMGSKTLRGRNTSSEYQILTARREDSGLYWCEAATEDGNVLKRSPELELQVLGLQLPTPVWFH
FcγRIIIa α subunit ECD-6-His-GST fusion protein (Homo sapiens (Human)), sequence (P08637 17-208): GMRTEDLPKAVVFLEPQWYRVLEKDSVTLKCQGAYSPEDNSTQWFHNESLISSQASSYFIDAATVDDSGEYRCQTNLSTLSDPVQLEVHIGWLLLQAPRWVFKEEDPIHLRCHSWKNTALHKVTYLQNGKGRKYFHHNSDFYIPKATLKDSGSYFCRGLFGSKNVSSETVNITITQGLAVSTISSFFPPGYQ

Row | binding, percentage of the wild type (% of wild type) [1] | binding, percentage of the wild type (% of wild type) [2] | binding, percentage of the wild type (% of wild type) [3] | CD20 binding, percentage of the wild type (% of wild type) [7] | binding, percentage of the wild type (% of wild type) [8] | Substance | further results
1 | 102 | 72 | 83 |  |  | E27 anti-IgE antibody, Fc mutant K320A | 
2 |  |  |  | 89 |  | C2B8 mutant E318A (antibody) | CDC, percentage of the wild type (% of wild type) (C1q (human) [4]): 108; CDC, percentage of the wild type (% of wild type) [5]: 108; decrease in binding to C1q against wild type C2B8 (C1q (human) [6]): 30%
3 |  |  | 101 |  | 109 | E27 anti-IgE antibody, Fc mutant K322A | 
4 | 74 | 73 | 58 |  | 86 | E27 anti-IgE antibody, Fc mutant P331A | 
5 | 104 | 85 |  |  |  | E27 anti-IgE antibody, Fc mutant P329A | 
6 |  |  |  | 112 |  | C2B8 mutant P329A (antibody) | 
7 |  |  |  | 103 |  | C2B8 mutant P331A (antibody) | fold lower binding to C1q than wild type C2B8 (C1q (human) [9]): 60 fold lower
8 |  |  |  | 102 |  | C2B8 mutant K320A (antibody) | CDC, percentage of the wild type (% of wild type) (C1q (human) [4]): 108; CDC, percentage of the wild type (% of wild type) [5]: 108
9 | 93 | 104 | 106 |  | 113 | E27 anti-IgE antibody, Fc mutant E318A | 
